Test results from article PMC5897841, “Development of a multipurpose scaffold for the display of peptide loops” (Protein Engineering, Design and Selection, 2017).

Columns and labels:
CK2α kinase [1] = biological target: T1, CK2α kinase (Homo sapiens, UniProt P68400); experiment: Analytical SEC, CK2α / RAD-CK2β; format: binding; details: Superdex 75 5/150, 20 mM HEPES pH 7.5, 500 mM NaCl, calibrated
T1 construct: made in house; host or cells: E. coli BL21(DE3) with pUBS520; pBAT4 plasmid
T1 sequence (P68400 2-329): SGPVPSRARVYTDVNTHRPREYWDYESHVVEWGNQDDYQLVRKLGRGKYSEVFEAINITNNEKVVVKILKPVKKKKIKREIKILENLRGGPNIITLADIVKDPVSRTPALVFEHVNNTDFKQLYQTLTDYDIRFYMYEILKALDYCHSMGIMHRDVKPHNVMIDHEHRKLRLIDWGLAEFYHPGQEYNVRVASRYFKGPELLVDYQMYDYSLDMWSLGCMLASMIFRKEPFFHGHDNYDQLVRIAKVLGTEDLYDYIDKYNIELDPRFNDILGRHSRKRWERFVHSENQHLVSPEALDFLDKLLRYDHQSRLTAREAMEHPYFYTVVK
Experimental: Purified protein samples, either as individual proteins or equimolar mixtures, were separated by analytical SEC over an Superdex 75 5/150 size exclusion column (GE Healthcare) equilibrated with 20 mM HEPES pH 7.5, 500 mM NaCl. Fractions from the peaks from each run were analyzed by SDS-PAGE with purified proteins as standards. The column was calibrated using molecular weight standards (blue dextran, bovine serum albumin, carbonic anhydrase, cytochrome C and aprotonin, Sigma-Aldrich cat. MWGF70) and the calibration curve used to estimate the molecular weights of the three samples (Fig. S5).
Figure S5. MW estimation of CK2α, RAD-CK2β(186-200) and their complexes by SEC Calibration Superdex 75 5/150 HR column
Figure S5. Molecular weight protein standards (Sigma -Aldrich, cat. no. MWGF70, gray diamonds in the plot) were used to calibrate Superdex 75 5/150 column. Blue dextran was used to define the void volume (1.24 ml)and total volume was assumed to be […]. Elution positions of CK2α,(blue […]
main article, were used to estimate the molecular weights of the proteins from the calibration curve. […]

CK2α kinase [2] = biological target: T1, CK2α kinase; experiment: Sedimentation velocity AUC, CK2α / RAD-CK2β; format: binding; details: 20°C, 20 mM HEPES pH 7.5, 500 mM NaCl

B1: CK2α kinase: Human CK2α kinase (residues 2-329) (protein)
chain: T1 sequence (P68400 2-329)
- Molecular weight equivalent of SEC elution volume (CK2α kinase [1]): 45.7 kDa
- Sedimentation coefficient (s-value) (CK2α kinase [2]; SV AUC, 50 000 rpm, 280 nm, CK2α 6 μM, RAD-CK2β 14.3 μM, complex 5 μM each): 3.0 S
- Molar mass from SV AUC (CK2α kinase [2]; boundary spreading): 41.5 kDa
